In assay [1] the target is T1, human MSLN-hFc protein (Acro, Cat. No. MSN-H5253) (human, UniProt Q13421 296-580).
T1 construct: the method names the coated protein as human MSLN-hFc (Acro); also called human MSLN full-length protein
Nature of the assay: ELISA on coated antigen, antibody 1 nM.

Assay [2] concerns the target T2, human MSLN-R3 protein (human, UniProt Q13421 487-598).
T2 construct: also called hMSLN-R3
Nature of the assay: ELISA on coated antigen, antibody 1 nM.

Assay [3] has as its target T1, human MSLN-hFc protein (Acro, Cat. No. …). Nature of the assay: ELISA on coated antigen, antibody 10 nM.
For assay [4], the target named is T2, human MSLN-R3 protein. Description: ELISA on coated antigen, antibody 10 nM.
Assay [5] deals with T1, human MSLN-hFc protein (Acro, Cat. No. …). Description: ELISA on coated antigen, antibody 0.1 nM.
For assay [6] the target is unchanged. Description: ELISA on coated antigen, antibody 100 nM.
Assay [7] deals with T2, human MSLN-R3 protein. Nature of the assay: ELISA on coated antigen, antibody 0.1 nM.
In assay [8] the target is T2, human MSLN-R3 protein. Description: ELISA on coated antigen, antibody 100 nM.
Assay [9] deals with T1, human MSLN-hFc protein (Acro, Cat. No. …). Description: ELISA on coated antigen, antibody 0.01 nM.
Assay [10] has as its target T2, human MSLN-R3 protein. Nature of the assay: ELISA on coated antigen, antibody 0.01 nM.
Assay [11] addresses T1, human MSLN-hFc protein (Acro, Cat. No. …). Nature of the assay: ELISA on coated antigen, antibody 0.001 nM.
The target of assay [12] is T2, human MSLN-R3 protein. Description: ELISA on coated antigen, antibody 0.001 nM.
The target of assay [13] is T1, human MSLN-hFc protein (Acro, Cat. No. …). Nature of the assay: ELISA on coated antigen, antibody 0.0001 nM.
Assay [14] concerns the target T2, human MSLN-R3 protein. Nature of the assay: ELISA on coated antigen, antibody 0.0001 nM.

Eight molecules from patent publication US20250250357A1 (NANJING ZAIMING PHARMACEUTICAL, published 2025) can be followed below.

T1 sequence (Q13421 other isoform, or with tags, fused parts or gaps limits assumed): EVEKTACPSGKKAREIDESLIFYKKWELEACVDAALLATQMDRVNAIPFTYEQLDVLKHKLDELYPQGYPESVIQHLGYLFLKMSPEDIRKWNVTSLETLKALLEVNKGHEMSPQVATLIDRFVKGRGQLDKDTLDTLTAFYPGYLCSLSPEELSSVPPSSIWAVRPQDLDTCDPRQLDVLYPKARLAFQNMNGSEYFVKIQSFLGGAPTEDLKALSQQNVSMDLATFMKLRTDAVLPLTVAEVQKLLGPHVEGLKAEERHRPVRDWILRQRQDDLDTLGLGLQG
T2 sequence (Q13421 495-606, form in doubt): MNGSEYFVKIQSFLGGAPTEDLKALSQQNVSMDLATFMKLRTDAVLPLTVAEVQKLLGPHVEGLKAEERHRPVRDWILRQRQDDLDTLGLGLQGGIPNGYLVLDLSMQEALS

B1: F7.44.20-H1 (scFv, not shown: small tags and cut ends)
scFv: EVQLVQSGAEVKKPGASVKVSCKASGYTFTDYNMDWVRQAPGQGLEWMGDINPSTGGTIYNQKFNGRVTMTEDKSTSTVYMELSSLRSEDTAVYYCARRRIGTGYFDVWGQGTTVTVSSGGGGSGGGGSGGGGSEIVLTQSPDFQSVTPKEKVTITCSASSSVISSYLSWYQQKPDQSPKLLIYRTSNLASGVPSRFSGSGSGTDFTLTINSLEAEDAATYYCHQWSSFPYTFGGGTKVEIK
notes: also called S009-F7.44.20 humanized antibody VH1 + VL1
Turning to B1, the OD450 in assay [1] stood at 1.46 OD450; in assay [2], 1.16 OD450; in [3], 2.94 OD450; in assay [4] it was 2.27 OD450; in assay [5] it was 0.22 OD450; in assay [6] it was 3.04 OD450. The OD450 is 0.16 OD450 in assay [7]; 2.3 OD450 in [8]; 0.06 OD450 in [9]; 0.06 OD450 in assay [10]; 0.05 OD450 in [11]; 0.05 OD450 in assay [12]. Besides, the OD450 in [13] and in [14] was 0.05 OD450 in each case.

B2: F7.44.20-H10 (scFv, not shown: small tags and cut ends)
scFv: EVQLVQSGAEVKKPGASVKVSCKASGYTFTDYNMDWVRQAPGQGLEWMGDINPSTGGTIYNQKFNGRVTMTEDKSASTVYMELSSLRSEDTAVYYCARRRIGTGYFDVWGQGTTVTVSSGGGGSGGGGSGGGGSEIVLTQSPDFQSVTPKEKVTITCSASSSVISSYLSWYQQKPDQSPKLLIYRTSNLASGVPSRFSGSGSGTDYTLTINSLEAEDAATYYCHQWSSFPYTFGGGTKVEIK
notes: also called S009-F7.44.20 humanized antibody VH2 + VL2
Regarding B2, the OD450 in [1] came to 1.44 OD450; in assay [2] it was 0.81 OD450; in [3], 2.93 OD450; in [4], 2.25 OD450; in [5] it was 0.24 OD450; in assay [6] it was 3.25 OD450. Further, the OD450 amounted to 0.11 OD450 in [7]; 2.44 OD450 in assay [8]; 0.06 OD450 in [9]; 0.04 OD450 in assay [10]; 0.04 OD450 in [11]; 0.04 OD450 in [12]. Also, the OD450 in assay [13] was 0.05 OD450; in assay [14] it was 0.04 OD450.

B3: F7.44.20-H6 (scFv, not shown: small tags and cut ends)
scFv: EVQLVQSGAEVKKPGASVKVSCKASGYTFTDYNMDWVRQAPGQGLEWMGDINPSTGGTIYNQKFQGRVTMTEDKSTSTVYMELSSLRSEDTAVYYCARRRIGTGYFDVWGQGTTVTVSSGGGGSGGGGSGGGGSEIVLTQSPDFQSVTPKEKVTITCSASSSVISSYLSWYQQKPDQSPKLLIYRTSNLASGVPSRFSGSGSGTDYTLTINSLEAEDAATYYCHQWSSFPYTFGGGTKVEIK
notes: also called S009-F7.44.20 humanized antibody VH1a + VL2
In the case of B3, the OD450 in [1] is 1.95 OD450; in assay [2], 1.31 OD450; in [3], 2.91 OD450; in [4], 2.15 OD450; in [5] it was 0.37 OD450; in [6], 3.04 OD450. For the same molecule, the OD450 in [7] turned out to be 0.21 OD450; in assay [8] it was 2.12 OD450; in [9], 0.07 OD450; in [10], 0.05 OD450; in [11] it was 0.05 OD450; in assay [12], 0.05 OD450. Moreover, the OD450 in assay [13] and in assay [14] was 0.05 OD450 in each case.

B4: F7.44.20-H14 (scFv, not shown: small tags and cut ends)
scFv: EVQLVQSGAEVKKPGASVKVSCKASGYTFTDYNMDWVRQAPGQGLEWMGDINPSTGGTIYNQKFSGRVTMTEDKSASTVYMELSSLRSEDTAVYYCARRRIGTGYFDVWGQGTTVTVSSGGGGSGGGGSGGGGSEIVLTQSPDFQSVTPKEKVTITCSASSSVISSYLSWYQQKPDQSPKLLIYRTSNLASGVPSRFSGSGSGTDYTLTINSLEAEDAATYYCHQWSSFPYTFGGGTKVEIK
notes: also called S009-F7.44.20 humanized antibody VH2a + VL2
As for B4, the OD450 in [1] amounted to 1.2 OD450; in assay [2], 0.66 OD450; in [3], 2.89 OD450; in assay [4], 1.69 OD450; in assay [5], 0.19 OD450; in assay [6] it was 3.13 OD450. Also, the OD450 in assay [7] came out at 0.1 OD450; in assay [8], 1.9 OD450; in assay [9], 0.07 OD450; in assay [10] it was 0.04 OD450; in assay [11], 0.05 OD450; in assay [12], 0.04 OD450. The OD450 in [13] was found to be 0.05 OD450; in [14], 0.04 OD450.

B5: F7.44.20-H9 (scFv, not shown: small tags and cut ends)
scFv: EVQLVQSGAEVKKPGASVKVSCKASGYTFTDYNMDWVRQAPGQGLEWMGDINPSTGGTIYNQKFNGRVTMTEDKSASTVYMELSSLRSEDTAVYYCARRRIGTGYFDVWGQGTTVTVSSGGGGSGGGGSGGGGSEIVLTQSPDFQSVTPKEKVTITCSASSSVISSYLSWYQQKPDQSPKLLIYRTSNLASGVPSRFSGSGSGTDFTLTINSLEAEDAATYYCHQWSSFPYTFGGGTKVEIK
notes: also called S009-F7.44.20 humanized antibody VH2 + VL1
Take B5: the OD450 in assay [1] stood at 1.3 OD450; in [2] it was 0.72 OD450; in [3] it was 2.97 OD450; in assay [4], 2.1 OD450; in assay [5], 0.19 OD450; in assay [6], 3.25 OD450. The OD450 in [7] came to 0.11 OD450; in assay [8], 2.52 OD450; in assay [9], 0.06 OD450; in assay [10], 0.04 OD450; in assay [11], 0.05 OD450; in assay [12], 0.04 OD450. Moreover, the OD450 in assay [13] was 0.05 OD450; in assay [14] it was 0.04 OD450.

B6: F7.44.20-H5 (scFv, not shown: small tags and cut ends)
scFv: EVQLVQSGAEVKKPGASVKVSCKASGYTFTDYNMDWVRQAPGQGLEWMGDINPSTGGTIYNQKFQGRVTMTEDKSTSTVYMELSSLRSEDTAVYYCARRRIGTGYFDVWGQGTTVTVSSGGGGSGGGGSGGGGSEIVLTQSPDFQSVTPKEKVTITCSASSSVISSYLSWYQQKPDQSPKLLIYRTSNLASGVPSRFSGSGSGTDFTLTINSLEAEDAATYYCHQWSSFPYTFGGGTKVEIK
notes: also called S009-F7.44.20 humanized antibody VH1a + VL1
Consider B6, for which the OD450 in [1] was 1.3 OD450; in [2], 0.8 OD450; in assay [3], 3.01 OD450; in assay [4] it was 2.05 OD450; in assay [5] it was 0.19 OD450; in assay [6], 2.94 OD450. For the same molecule, the OD450 came to 0.11 OD450 in assay [7]; 2.27 OD450 in [8]; 0.05 OD450 in [9]; 0.04 OD450 in assay [10]; 0.04 OD450 in [11]; 0.04 OD450 in assay [12]. The OD450 in [13] came out at 0.04 OD450; in assay [14] it was 0.05 OD450.

B7: F7.44.20-H2 (scFv, not shown: small tags and cut ends)
scFv: EVQLVQSGAEVKKPGASVKVSCKASGYTFTDYNMDWVRQAPGQGLEWMGDINPSTGGTIYNQKFNGRVTMTEDKSTSTVYMELSSLRSEDTAVYYCARRRIGTGYFDVWGQGTTVTVSSGGGGSGGGGSGGGGSEIVLTQSPDFQSVTPKEKVTITCSASSSVISSYLSWYQQKPDQSPKLLIYRTSNLASGVPSRFSGSGSGTDYTLTINSLEAEDAATYYCHQWSSFPYTFGGGTKVEIK
notes: also called S009-F7.44.20 humanized antibody VH1 + VL2
As for B7, the OD450 in assay [1] worked out at 1.26 OD450; in assay [2] it was 0.95 OD450; in assay [3], 2.71 OD450; in [4] it was 2.22 OD450; in [5], 0.16 OD450; in assay [6], 3.06 OD450. In addition, the OD450 in assay [7] turned out to be 0.11 OD450; in assay [8], 2.35 OD450; in [9] it was 0.05 OD450; in assay [10], 0.05 OD450; in assay [11], 0.04 OD450; in assay [12], 0.05 OD450. In addition, the OD450 in [13] amounted to 0.04 OD450; in assay [14], 0.05 OD450.

B8: F7.44.20-H13 (scFv, not shown: small tags and cut ends)
scFv: EVQLVQSGAEVKKPGASVKVSCKASGYTFTDYNMDWVRQAPGQGLEWMGDINPSTGGTIYNQKFSGRVTMTEDKSASTVYMELSSLRSEDTAVYYCARRRIGTGYFDVWGQGTTVTVSSGGGGSGGGGSGGGGSEIVLTQSPDFQSVTPKEKVTITCSASSSVISSYLSWYQQKPDQSPKLLIYRTSNLASGVPSRFSGSGSGTDFTLTINSLEAEDAATYYCHQWSSFPYTFGGGTKVEIK
notes: also called S009-F7.44.20 humanized antibody VH2a + VL1
Regarding B8, the OD450 in assay [1] was determined as 0.98 OD450; in [2], 0.45 OD450; in assay [3] it was 2.81 OD450; in assay [4], 1.57 OD450; in assay [5], 0.16 OD450; in assay [6] it was 3.12 OD450. The OD450 came to 0.08 OD450 in assay [7]; 1.94 OD450 in assay [8]; 0.06 OD450 in [9]; 0.05 OD450 in assay [10]; 0.06 OD450 in assay [11]; 0.05 OD450 in assay [12]. The results for the OD450 in assay [13] and in assay [14] were 0.06 OD450 and 0.05 OD450, respectively.
